Measurements from PMC3182943, “Monalysin, a Novel ß-Pore-Forming Toxin from the Drosophila Pathogen Pseudomonas entomophila, Contributes to Host Intestinal Damage and Lethality” (PLoS Pathogens, 2011).

Target: the molecule itself
Experiment: SEC-MALS; Silica Gel KW804 column (Shodex), 10 mM Tris, 150 mM NaCl, pH 7.5, 0.5 ml/min; MALS/UV/RI with quasi-elastic light scattering; protein loaded at 0.02 mM

B1: recombinant pro-Monalysin (natural protein)
chain: MTIKEELGQPQSHSIELDEVSKEAASTRAALTSNLSGRFDQYPTKKGDFAIDGYLLDYSSPKQGCWVDGITVYGDIYIGKQNWGTYTRPVFAYLQYVETISIPQNVTTTLSYQLTKGHTRSFETSVNAKYSVGANIDIVNVGSEISTGFTRSESWSTTQSFTDTTEMKGPGTFVIYQVVLVYAHNATSAGRQNANAFAYSKTQAVGSRVDLYYLSAITQRKRVIVPSSNAVTPLDWDTVQRNVLMENYNPGSNSGHFSFDWSAYNDPHRRY
notes: Monalysin (pro-form, pore-forming toxin) of Pseudomonas entomophila L48, ORF PSEEN3174, residues 1 to 271; 30.2 kDa by MALDI-TOF, called the full-length pro-toxin; TRX-His6-TEV fusion from the vector pETG-20A, removed by His-TEV protease; The text mostly calls this protein 'Monalysin' or 'recombinant Monalysin'; upon storage at 4°C it turns partly into the shorter form; Oligomer of about 18 …
stoichiometry N: ~18 monomers
